Laboratory results as given in US20120095193A1 (published 2012).

T1: human ADAMTS5 (human, UniProt Q9UNA0 262-622, limits assumed)
T1 construct: Octet and ELISA used 'recombinant human ADAMTS5'; also called recombinant human ADAMTS5; ADAMTS5 (R&D Systems 2198-AD)
T1 sequence: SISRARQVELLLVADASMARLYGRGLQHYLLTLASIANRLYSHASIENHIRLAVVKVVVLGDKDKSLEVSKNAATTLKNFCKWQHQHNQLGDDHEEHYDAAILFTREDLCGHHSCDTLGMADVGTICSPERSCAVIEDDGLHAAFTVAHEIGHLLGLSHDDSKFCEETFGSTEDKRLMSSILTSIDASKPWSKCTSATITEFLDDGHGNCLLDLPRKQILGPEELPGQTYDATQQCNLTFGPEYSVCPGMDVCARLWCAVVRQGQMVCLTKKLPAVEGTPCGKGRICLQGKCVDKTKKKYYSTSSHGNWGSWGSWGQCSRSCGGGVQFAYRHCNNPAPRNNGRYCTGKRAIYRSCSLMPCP

T2: Human ADAMTS13 (human, UniProt Q76LX8 75-685, limits assumed)
T2 sequence (looked up): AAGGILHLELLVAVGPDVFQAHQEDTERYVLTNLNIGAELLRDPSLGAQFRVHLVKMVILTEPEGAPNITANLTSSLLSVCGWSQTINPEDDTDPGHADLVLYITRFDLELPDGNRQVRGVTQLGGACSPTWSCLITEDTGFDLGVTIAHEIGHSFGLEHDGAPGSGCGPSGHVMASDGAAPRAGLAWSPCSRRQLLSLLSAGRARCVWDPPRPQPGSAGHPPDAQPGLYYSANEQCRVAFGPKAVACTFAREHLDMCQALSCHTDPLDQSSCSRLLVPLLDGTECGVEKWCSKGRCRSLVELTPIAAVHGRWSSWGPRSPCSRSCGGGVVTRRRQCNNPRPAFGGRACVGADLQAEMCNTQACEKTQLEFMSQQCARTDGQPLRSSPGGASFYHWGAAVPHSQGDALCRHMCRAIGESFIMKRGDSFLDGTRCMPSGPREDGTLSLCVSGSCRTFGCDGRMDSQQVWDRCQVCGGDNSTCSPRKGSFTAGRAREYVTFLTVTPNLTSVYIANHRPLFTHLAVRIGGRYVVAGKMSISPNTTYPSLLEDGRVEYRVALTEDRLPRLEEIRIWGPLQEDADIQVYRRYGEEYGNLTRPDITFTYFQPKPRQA

T3: Human MMP1 (human, UniProt P03956 20-469, limits assumed)
T3 sequence (looked up): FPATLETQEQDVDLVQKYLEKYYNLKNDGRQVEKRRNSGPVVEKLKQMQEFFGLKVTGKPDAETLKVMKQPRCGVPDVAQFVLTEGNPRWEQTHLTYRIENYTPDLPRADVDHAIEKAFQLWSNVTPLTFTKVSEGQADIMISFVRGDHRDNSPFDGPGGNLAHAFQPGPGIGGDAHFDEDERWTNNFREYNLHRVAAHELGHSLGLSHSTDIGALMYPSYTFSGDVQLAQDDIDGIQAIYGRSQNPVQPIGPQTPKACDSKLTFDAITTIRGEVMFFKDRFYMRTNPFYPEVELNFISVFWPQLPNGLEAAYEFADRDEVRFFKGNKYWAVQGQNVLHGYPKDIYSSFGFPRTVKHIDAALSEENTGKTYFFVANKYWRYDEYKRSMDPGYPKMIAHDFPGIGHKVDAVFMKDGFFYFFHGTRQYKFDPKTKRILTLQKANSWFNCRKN

T4: Human ADAMTS4 (human, UniProt O75173 213-685, limits assumed)
T4 construct: also called aggrecanase-1
T4 sequence: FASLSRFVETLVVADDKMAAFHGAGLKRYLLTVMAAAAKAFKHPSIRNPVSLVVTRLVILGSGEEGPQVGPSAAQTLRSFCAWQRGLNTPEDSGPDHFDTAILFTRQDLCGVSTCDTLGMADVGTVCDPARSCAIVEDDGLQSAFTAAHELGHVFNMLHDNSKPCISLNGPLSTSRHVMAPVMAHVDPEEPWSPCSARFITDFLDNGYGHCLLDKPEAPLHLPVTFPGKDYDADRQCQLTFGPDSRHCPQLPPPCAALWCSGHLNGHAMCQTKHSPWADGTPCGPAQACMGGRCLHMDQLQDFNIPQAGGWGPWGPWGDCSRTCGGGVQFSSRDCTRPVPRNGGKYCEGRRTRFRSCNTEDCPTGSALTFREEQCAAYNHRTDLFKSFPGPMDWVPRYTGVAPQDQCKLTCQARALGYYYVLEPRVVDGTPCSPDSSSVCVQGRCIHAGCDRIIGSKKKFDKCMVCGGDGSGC

T5: Human ADAMTS1 (human, UniProt Q9UHI8 253-967, limits assumed)
T5 sequence (looked up): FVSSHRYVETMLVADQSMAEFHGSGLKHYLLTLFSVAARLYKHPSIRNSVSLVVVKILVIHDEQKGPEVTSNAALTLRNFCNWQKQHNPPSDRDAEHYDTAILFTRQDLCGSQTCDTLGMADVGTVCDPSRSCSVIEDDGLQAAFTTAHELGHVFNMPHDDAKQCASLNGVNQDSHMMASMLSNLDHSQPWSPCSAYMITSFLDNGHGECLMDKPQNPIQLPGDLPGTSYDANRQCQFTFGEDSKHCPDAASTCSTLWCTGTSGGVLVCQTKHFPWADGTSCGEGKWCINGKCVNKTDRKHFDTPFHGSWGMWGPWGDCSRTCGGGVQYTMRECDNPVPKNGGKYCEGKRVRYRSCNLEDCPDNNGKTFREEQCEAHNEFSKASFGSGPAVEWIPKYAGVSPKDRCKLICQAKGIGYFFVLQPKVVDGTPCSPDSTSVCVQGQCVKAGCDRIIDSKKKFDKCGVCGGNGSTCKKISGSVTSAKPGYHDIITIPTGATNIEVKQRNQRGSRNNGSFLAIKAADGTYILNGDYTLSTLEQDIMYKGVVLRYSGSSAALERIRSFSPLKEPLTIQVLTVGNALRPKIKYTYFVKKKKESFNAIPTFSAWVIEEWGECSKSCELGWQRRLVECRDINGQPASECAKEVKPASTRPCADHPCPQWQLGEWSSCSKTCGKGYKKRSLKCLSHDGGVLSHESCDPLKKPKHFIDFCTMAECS


Columns and labels:
human ADAMTS5 [1] = biological target: T1, human ADAMTS5; experiment: Octet QK, purified mAb
Human MMP3 = Human MMP3 (human, UniProt P08254 18-477, limits assumed); experiment: celTRF and Octet QK cross-reactivity
Human ADAMTS13 = biological target: T2, Human ADAMTS13; experiment: celTRF and Octet QK cross-reactivity
Human MMP1 = biological target: T3, Human MMP1; experiment: celTRF and Octet QK cross-reactivity
Human MMP13 = Human MMP13 (human, UniProt P45452 20-471, limits assumed); experiment: celTRF and Octet QK cross-reactivity
Human ADAMTS4 = biological target: T4, Human ADAMTS4; experiment: celTRF and Octet QK cross-reactivity
Human ADAMTS1 = biological target: T5, Human ADAMTS1; experiment: celTRF and Octet QK cross-reactivity
Human MMP9 = Human MMP9 (human, UniProt P14780 20-707, limits assumed); experiment: celTRF and Octet QK cross-reactivity
human ADAMTS5 [2] = biological target: T1, human ADAMTS5; experiment: Octet QK, antigen down, incl avidity
human ADAMTS5 [3] = biological target: T1, human ADAMTS5; experiment: cell-based or functional assay
human ADAMTS5 [4] = biological target: T1, human ADAMTS5; experiment: Biacore, mAb down, no avidity
human ADAMTS5 [5] = biological target: T1, human ADAMTS5; experiment: Octet QK, purified murine mAb
human ADAMTS5 [6] = biological target: T1, human ADAMTS5; experiment: ELISA on coated recombinant human ADAMTS5 (0.2 ug/ml), antibody in culture supernatant, anti human kappa peroxidase, OD 490 nm
Method: A binding ELISA was carried out to test the binding of the expressed antibodies in cell culture supernatant to recombinant ADAMTS5. ELISA plates were coated with recombinant human ADAMTS5 at 0.2 μg/ml and blocked with blocking solution (4% BSA in Tris buffered saline). Various dilutions of the tissue culture supernatants were added and the plate was incubated for 1 hour at room temperature before washing in TBST. Binding was detected by the addition of a peroxidase labelled anti human kappa light chain antibody (Sigma A7164) at a dilution of 1/1000 in blocking solution. The plate was incubated for 1 hour at room temp before washing in TBST. The plate was developed by addition of OPD substrate (Sigma P9187) and colour development stopped by addition of 2M H₂SO₄. Absorbance was measured at 490 nm with a plate reader and the mean absorbance plotted against concentration.

human ADAMTS5 [7] = biological target: T1, human ADAMTS5; experiment: Biacore T100, HEK-expressed mAb captured on Protein A, ADAMTS5 (R&D 2198-AD) 0.0625-64 nM, 1:1 fit
Method: (§1) Protein A was immobilized on a CM5 biosensor chip by primary amine coupling. This surface was used to capture the Fc disabled anti-ADAMTS5 antibody, 12F4 H4L0 IgG1m(AA) (BPC1661), (CHO and HEK expressed material). Recombinant human ADAMTS5 (R&D Systems 2198-AD) was used as the analyte at 64 nM, 16 nM, 4 nM, 1 nM, 0.25 nM and 0.0625 nM, with a buffer injection (i.e. 0 nM) used to double reference the binding curves. Regeneration of the capture surface (i.e. removal of the captured antibody) was with 50 mM NaOH. The running buffer was HBS-EP and the run was carried out on the Biacore T100 at 25° C. The data was fitted to the 1:1 model inherent to the machines analysis software.

human ADAMTS5 [8] = biological target: T1, human ADAMTS5; experiment: Biacore T100, CHO-expressed mAb captured on Protein A, ADAMTS5 (R&D 2198-AD) 0.0625-64 nM, 1:1 fit
Method: as §1

Chain of Human MMP9 (P14780 20-707 limits assumed): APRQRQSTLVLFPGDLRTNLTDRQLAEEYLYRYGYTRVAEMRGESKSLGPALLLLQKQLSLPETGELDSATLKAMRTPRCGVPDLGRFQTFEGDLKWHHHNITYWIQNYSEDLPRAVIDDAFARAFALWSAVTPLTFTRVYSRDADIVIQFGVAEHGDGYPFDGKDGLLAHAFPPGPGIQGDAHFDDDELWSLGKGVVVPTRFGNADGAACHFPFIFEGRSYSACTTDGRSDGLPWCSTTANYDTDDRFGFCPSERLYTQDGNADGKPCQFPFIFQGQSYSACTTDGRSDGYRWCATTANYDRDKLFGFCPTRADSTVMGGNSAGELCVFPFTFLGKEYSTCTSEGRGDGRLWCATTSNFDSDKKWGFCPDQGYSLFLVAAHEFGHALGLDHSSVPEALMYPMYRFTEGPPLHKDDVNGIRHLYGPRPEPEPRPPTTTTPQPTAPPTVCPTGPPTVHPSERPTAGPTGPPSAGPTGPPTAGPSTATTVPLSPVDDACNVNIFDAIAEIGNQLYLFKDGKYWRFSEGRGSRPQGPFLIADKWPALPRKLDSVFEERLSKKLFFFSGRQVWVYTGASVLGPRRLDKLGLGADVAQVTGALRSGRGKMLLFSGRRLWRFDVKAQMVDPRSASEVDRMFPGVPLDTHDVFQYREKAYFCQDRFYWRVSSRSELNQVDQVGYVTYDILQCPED
Chain of Human MMP3 (P08254 18-477 limits assumed): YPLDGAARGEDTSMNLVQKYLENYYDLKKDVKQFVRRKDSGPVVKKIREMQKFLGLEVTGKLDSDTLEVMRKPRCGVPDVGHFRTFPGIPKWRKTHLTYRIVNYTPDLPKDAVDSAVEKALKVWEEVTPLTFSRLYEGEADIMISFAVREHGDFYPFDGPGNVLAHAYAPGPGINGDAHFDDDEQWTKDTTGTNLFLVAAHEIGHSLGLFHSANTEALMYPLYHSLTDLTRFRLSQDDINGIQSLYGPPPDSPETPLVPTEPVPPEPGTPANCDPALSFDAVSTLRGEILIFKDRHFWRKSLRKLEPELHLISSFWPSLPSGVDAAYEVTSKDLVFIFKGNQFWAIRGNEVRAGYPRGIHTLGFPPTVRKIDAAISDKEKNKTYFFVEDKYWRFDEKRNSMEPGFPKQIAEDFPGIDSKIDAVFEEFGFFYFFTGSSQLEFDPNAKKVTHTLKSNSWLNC

Row | Binder | Kd (human ADAMTS5 [1]) [pM] | binding result (Human MMP3) | binding result (Human ADAMTS13) | binding result (Human MMP1) | binding result (Human MMP13) | binding result (Human ADAMTS4) | binding result (Human ADAMTS1) | binding result (Human MMP9) | Kd (human ADAMTS5 [2]) [pM] | Aggrecan Substrate Cleavage Neutralization IC50 (human ADAMTS5 [3]) [pM] | Kd (human ADAMTS5 [4]) [pM] | Kd (human ADAMTS5 [5]) [pM] | binding result (human ADAMTS5 [6]) | Kd (human ADAMTS5 [7]) [pM] | Kd (human ADAMTS5 [8]) [pM]
1 | 7B4.1E11 (antibody, IgG1, V domains shown, also called Murine 7B4.1E11) VH: EVKLEESGGGLVQPGGSMKLSCAASGFTSSDAWMDWVRQSPEKGLEWVAEIRNKANNHARHYAESVKGRFTISRDDSKSSVYLQMNSLRAEDSGIYYCTRTYYYGSSYGYCDVWGTGTTVTVSS VL: DIQMTQSPASLSASVGETVTITCRTSENIYSYLAWYQQKQGKSPQLLVYNAKTLAEGVPSRFSGSGSGTQFSLKINSLQPEDFGSYSCQHHYGTPWTFGGGTKLEIKR | 358 | no binding | no binding | no binding | no binding | no binding | no binding | no binding | 280 | 80 | 483 | 899 |  |  | 
2 | 12F4.1H7 (antibody, IgG2, V domains shown, also called Murine 12F4.1H7) VH: EVKLEESGGGLVQPGGSMKLSCTASGFTFSDAWMDWVRQSPEKGLEWVAEIRHKANDHAIFYDESVKGRFTISRDDSKNIVYLQMNSLRPEDTGIYYCTSPFAYWGQGTLVTVSA VL: DIVMTQSQKFMSVTVGDRVSITCKASQSVGTTIVWYQQKPGQSPKLLIYSASNRHTGVPDRFTGSGSGTDFILTINNVQSEDLADYFCQQYTSYPFTFGSGTKLEIKR | 68.5 | no binding | no binding | no binding | no binding | no binding | no binding | no binding | 35.6 | 60 | 67 | 436 |  |  | 

More lines, now with the values ahead:

Row | Kd (human ADAMTS5 [1]) [pM] | binding result (Human MMP3) | binding result (Human ADAMTS13) | binding result (Human MMP1) | binding result (Human MMP13) | binding result (Human ADAMTS4) | binding result (Human ADAMTS1) | binding result (Human MMP9) | Kd (human ADAMTS5 [2]) [pM] | Aggrecan Substrate Cleavage Neutralization IC50 (human ADAMTS5 [3]) [pM] | Kd (human ADAMTS5 [4]) [pM] | Kd (human ADAMTS5 [5]) [pM] | binding result (human ADAMTS5 [6]) | Kd (human ADAMTS5 [7]) [pM] | Kd (human ADAMTS5 [8]) [pM] | Binder
3 |  |  |  |  |  |  |  |  |  |  |  |  | no binding (tested: about 2.5 ug/ml) |  |  | BPC1655 (antibody, human IgG1, kappa, V domains shown, Humanized, human gamma 1 / kappa; also called 12F4 H0L0) VH: EVQLLESGGGLVQPGGSLRLSCAASGFTFSDAWMDWVRQAPGKGLEWVSEIRHKANDHAIFYDESVKGRFTISRDNSKNTLYLQMNSLRAEDTAVYYCAKPFAYWGQGTLVTVSS VL: DIQMTQSPSSLSASVGDRVTITCKASQSVGTTIVWYQQKPGKAPKLLIYSASNRHTGVPSRFSGSGSGTDFTLTISSLQPEDFATYYCQQYTSYPFTFGQGTKLEIKR
4 |  |  |  |  |  |  |  |  |  |  |  |  |  | 74 | 70 | BPC1661 (antibody, human IgG1, kappa, HEK- and CHO-expressed material was tested; also called 12F4 H4L0 IgG1m(AA); Fc disabled anti-ADAMTS5 antibody) heavy: not shown light: DIQMTQSPSSLSASVGDRVTITCKASQSVGTTIVWYQQKPGKAPKLLIYSASNRHTGVPSRFSGSGSGTDFTLTISSLQPEDFATYYCQQYTSYPFTFGQGTKLEIKRTVAAPSVFIFPPSDEQLKSGTASVVCLLNNFYPREAKVQWKVDNALQSGNSQESVTEQDSKDSTYSLSSTLTLSKADYEKHKVYACEVTHQGLSSPVTKSFNRGEC
